We go through one molecule from patent US20140178935A1 (AVEO PHARMACEUTICALS, published 2014).

Assay [1] deals with T1, recombinant human HGF (R&D Systems, Catalog No. 294-HGN-025) (human, UniProt P14210 32-728).
T1 construct: Mature HGF is a disulfide-linked heterodimer of alpha and beta chain cut from one precursor; also called rhHGF (R&D Systems); rhHGF
Briefly: SPR, captured antibody, HGF injected, 25 C. As for the experimental part:
Mouse anti-human immunoglobulins (Jackson Labs, Catalog No. 209-005) were immobilized on carboxymethylated dextran CM4 sensor chips (BIAcore, Catalog No. BR-1006-68) by amine coupling (BIAcore, Catalog No. BR-1000-50) using a standard coupling protocol according to manufacturer's instructions. The analyses were performed at 25° C. using PBS (GIBCO, Catalog No. 14040-133) containing 0.05% surfactant P20 (BIAcore, Catalog No. BR-1000-54), and 2 mg/mL BSA (EMD, Catalog No. 2930).
(§1) The antibodies were captured in an individual flow cell at a flow rate of 10 μL/min. Injection time was variable for each antibody to yield approximately 20 RU of antibody captured for each cycle. […] The dissociation phase was monitored for 15 or 90 minutes, depending on concentration. The surface then was regenerated with 10 mM Glycine-HCl, pH 2.2 (BIAcore, Catalog No. BR-1003-54) injected for 3 minutes at a flow rate of 60 μL/min before another cycle was initiated.
Kinetic parameters were determined using the kinetic function of the BIAevalutation™ software with reference subtraction.

Assay [2] has as its target T1, recombinant human HGF (R&D Systems, …). Briefly: SPR, captured antibody, HGF injected, 25 C. On the procedure: Mouse anti-human immunoglobulins (Jackson Labs, Catalog No. 209-005) or rabbit anti-mouse immunoglobulins (BIAcore, Catalog No. BR-1005-14) were immobilized on carboxymethylated dextran CM4 sensor chips (BIAcore, Catalog No. BR-1006-68) by amine coupling (BIAcore, Catalog No. BR-1000-50) using a standard coupling protocol according to manufacturer's instructions. […] The analyses were performed at 25° C. and 37° C. using PBS (GIBCO, Catalog No. 14040-133) containing 0.05% surfactant P20 (BIAcore, Catalog No. BR-1000-54), and 2 mg/mL BSA (EMD, Catalog No. 2930) as running buffer.
as §1, with “[…].” for “μL/min.”, “surface of mouse anti-human immunoglobulins sensor chips was” for “surface”, “then” for “then was”, “initiated. The surface of rabbit anti-mouse immunoglobulins sensor chips was regenerated with 10 mM Glycine-HCl, pH 1.7 (BIAcore, Catalog No. BR-1003-54) injected for 3 minutes at a flow rate of 60 μL/min before another cycle was initiated.” for “initiated.”
Kinetic parameters were determined using the kinetic function of the BIAevaluation software with reference subtraction.
This is another data set of the same source. A general note: In SPR one partner is held on a chip, and binding of the other changes the refractive index at the surface.

Assay [3] shares this target. Briefly: SPR (BIAcore T100), antibody captured on mouse anti-human immunoglobulin CM4 chip, HGF 1.88, 3.75 and 7.5 nM injected, 25 C; three independent experiments. On the procedure: Antigen-binding affinity and kinetics of interaction were assessed by surface plasmon resonance technology using a BIAcore T100 instrument. Mouse anti-human immunoglobulins (Jackson ImmunoResearch Labs, 209-005-098) were immobilized on carboxymethylated dextran CM4 sensor chips (BIAcore, Catalog No. BR-1005-34) by amine coupling (BIAcore, Catalog No. BR-1000-50) using a standard coupling protocol according to manufacturer's recommendations. The analyses were performed at 25° C. using PBS (GIBCO, Catalog No. 14040-133) containing 0.05% surfactant P20 (BIAcore, Catalog No. BR-1000-54), 2 mg/mL BSA (EMD, Catalog No. 2930) and 10 mg/mL CM-Dextran Sodium salt (Fluka, Catalog No. 86524) as running buffer.
as §1, with “on” for “in an”, “2.0” for “2.2”, “BR-1003-55)” for “BR-1003-54)”, “initiated. […] Determination of kinetic parameters was achieved using the kinetic function of the BIAevalutation software with reference subtraction.” for “initiated.”

T1 sequence (P14210 32-728 limits assumed): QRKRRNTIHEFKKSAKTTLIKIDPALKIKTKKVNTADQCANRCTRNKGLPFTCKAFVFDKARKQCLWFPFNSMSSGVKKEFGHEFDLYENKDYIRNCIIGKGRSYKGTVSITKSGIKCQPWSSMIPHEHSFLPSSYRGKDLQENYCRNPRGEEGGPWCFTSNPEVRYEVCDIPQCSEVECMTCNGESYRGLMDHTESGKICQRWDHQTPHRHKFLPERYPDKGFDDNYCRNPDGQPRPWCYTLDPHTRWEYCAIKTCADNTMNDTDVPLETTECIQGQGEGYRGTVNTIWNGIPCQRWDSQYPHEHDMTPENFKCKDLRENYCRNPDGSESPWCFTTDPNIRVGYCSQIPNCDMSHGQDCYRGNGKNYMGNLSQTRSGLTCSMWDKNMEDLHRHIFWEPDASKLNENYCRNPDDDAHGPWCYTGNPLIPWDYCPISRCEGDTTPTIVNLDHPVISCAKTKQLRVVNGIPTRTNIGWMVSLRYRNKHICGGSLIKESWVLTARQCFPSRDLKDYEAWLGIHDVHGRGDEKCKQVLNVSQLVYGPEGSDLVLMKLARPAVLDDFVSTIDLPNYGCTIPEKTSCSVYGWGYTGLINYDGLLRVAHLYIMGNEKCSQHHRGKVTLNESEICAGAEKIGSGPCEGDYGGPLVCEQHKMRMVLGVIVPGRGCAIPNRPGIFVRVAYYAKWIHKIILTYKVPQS

B1: sh2B8-9 (G1m(17,1)) = hu2B8 Hv5-51.1 + IgG1 constant region (G1m(17,1) allotype) plus hu2B8 Kv1-39.1 + Kappa constant region (Km(3) allotype, allele 2) (antibody)
heavy: not shown
light: DIQMTQSPSSLSASVGDRVTITCKASENVVSYVSWYQQKPGKAPKLLIYGASNRNTGVPSRFSGSGSGTDFTLTISSLQPEDFATYYCGQSYNYPYTFGQGTKLEIKRTVAAPSVFIFPPSDEQLKSGTASVVCLLNNFYPREAKVQWKVDNALQSGNSQESVTEQDSKDSTYSLSSTLTLSKADYEKHKVYACEVTHQGLSSPVTKSFNRGEC
Usually Kd stands for the free concentration of one partner at which half of the binding sites on the other are occupied at equilibrium, for simple one-to-one binding. What is called koff is a measure of how fast the partners let go of each other. In general, kon refers to a measure of how fast the partners come together. For B1, in assay [1], the Kd came out at 8.1 pM, the koff was 1.7e-05 s⁻¹ and the kon was found to be 2e+06 M⁻¹ s⁻¹. Further, in assay [2], the Kd was 8.1 pM, the koff worked out at 1.7e-05 s⁻¹ and the kon is 2e+06 M⁻¹ s⁻¹. In assay [3], the Kd was 8.1 pM, the dissociation rate constant (koff) worked out at 1.7e-05 s⁻¹ and the kon stood at 2e+06 M⁻¹ s⁻¹.
